In the supplement of paper PMC12042874:
± gives the uncertainty stated by the source.

Assay: amyloid nucleation score (Sup35N fusion, yeast selection) (log enrichment); library NNK3; higher = more nucleation; inactive = no reads after selection
In short: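 Sup35N was fused to peptides of 20 random codons and expressed in psi-negative yeast, which were induced with 100 μM copper sulfate for 24 hours and then grown on medium lacking adenine and uracil for 7 days at 30°C. Plasmid inserts from input and output were sequenced on Illumina. The nucleation score is the DiMSum log enrichment of output over input reads, centred on the mode score of non-aggregating sequences. Sequences with under 100 input reads were left out, and random libraries had three technical output replicates.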

Amyloid nucleation score, -0.351 ± 1.1:
SCSGW

Amyloid nucleation score, 2.58 ± 0.049:
RSVKVYLRCSLSNCVILLGT

Amyloid nucleation score, 1.43 ± 0.07:
RSRKLCNPIMILLQVFGNYG

Amyloid nucleation score, -0.528 ± 0.77:
SCLWGKRLMFWCE

Amyloid nucleation score, 1.14 ± 0.096:
SCGKGRYWVLNAMINPICKQ

Amyloid nucleation score, inactive:
RNMLVAPDSCMASRWYGVHL
RNSKWWLYLKSARSCYLGWW
RNSRTVRRDLQINCR
RNVCMSEVGSVDKSSLLHGN
RNWLYLFVRRLISWLNKWGK
RNYDFSKGITVSWRLLHA
RPMRACRGMEVRGFSSEVSA
RPRRTCWM
RPWHPLLTSDVVNCWLKIRV
RQCMKRLWDSCYKKAWIKYV
RQEFIGWFSTSALSAQFLS
RQIRPMRTLSGTLGAGDRCH
RRAAEKFFNEPTWERHLVSG
RRELWRLRTVVCTMNLLYYA
RRFIIPRAVAFTSL
RRLCKYYLQVKSPCIGHDCQ
RRMLTRTFRG
RRPVYIIASNLDYMQTSCIT
RRSKISLS
RRSNSHYM
RRSRCVRSVYRFRMSRARPP
RRTMFPAMIIS
RSCLCEWWDVGSSVSASTLL
RSDCNGSSKYLISDHFP
RSDGRCEYKSWCNVQLKVE
RSDMTAHDTNDAVQLEPSVE
RSGSMWCLSMLVVHLDELTD
RSILDM
RSKLYEISRIRKMGHPHTAE
RSLAEGFYGAVPEGSVRFRN
RSMQFGVIYAYYHRMAG
RSMSTGNH
RSSESNIICTTLRYLSVVVY
RSSPEDPLTSFLGYTGMTAS
RSTFYIISCRTVDWESVSTR
RSTWEQ
RSVVEWGS
RSYFGMARGAHFSAHFLLFL
RTFPNTWHAMIFGCVNKPNC
RTGSHEMLIICFCVTSVL
RTHGCCSVCNTEFADGVVLS
RTIFFFLDSMLIYSRAVCRL
RTLAIRYSSNPLTIRLLQSL
RTMSSLLFQFDSFLKLIKSE
RTRCAPLDMVEL
RTSYLVLMKCYSALDYGVIA
RTVIGLPASMLLSCDHISFV
RVARMFGEY
RVCRVAPLPAVKGLGVSQNS
RVDRLALLCSTSGINSDFGR
RVDSYVSMTYHIRWFFVRTE
RVEVSSTGV
RVFEVEKLVEIGGTMLHESN
RVKQQLNLP
RVLATFCG
RVLNS
RVRLIH
RVTGTCGFRRDGFESWRNTR
RVVCAD
RWAKSEAVLLVFGEFSLVGW
RWFDTFLCLSR
RWFRLSWLEISKYA
RWLASNVDPKITSEIQPGAS
RWPEPFSWFRFDYQIRDVVF
RWSVLAVSCM
RWYAVLYHLV
RYCIVLTDNVNTLHNLIIMV
RYGDWLHHS
RYGLVVIAVVSAVHDGDACS
RYKVD
RYLDQLI
RYSEWPAD
RYWHEASVVGFIWGKWVDVS
RYWWYHSYRNGSGSLESYGV
RYYDLVSGSWWIYFG
SAACLIMCVLLSILVQIFGM
SACEMWATRHKNWRASGYNH
SAFKAKL
SAGACSV
SARRTVYLFQNSHRVHPFLF
SASKKLTAFALVVFLRV
SAWSTECYVMCSM
SAYTTLRDRRCSKGYNMILG
SCAECDMRWHMGGCICFVLG
SCEDVVANVLLYCRISGHWG
SCFCQILPFRV
SCGSDKSLFDDCIKPRSRHC
SCIRVRRNATVAVVLDDMLK
SCMCYGTLLVLLYISYVMVE
SCQNRWYSSFHKLAETRSYW
SCQSGMSLCLSDHRLA
SCRIFDPMEPTTLCENSWSL
SCRIMSRYGAQIWCDPTYQA
SCRLLNFIICIGWVWGFDVS
SCRNCDYLLCGNYHT
SCSNCVHISRTAILTGPRSA
SCSSTDDWPGISSG
SCTVKLDCNAVDSVSMDDVD
SCVARYDRAAHRRVIETRLG
SCVGVRVLCSAVV
SDGSCRVRAFYSYKGALVSF
SDIAVLRRLNCMKVKLKLWH
SDKRQLRDR
SDLTMIRVPIFITLRPPHSS
SDQVGFQIEVFCVKS
SDRRLK
SDRSA
SDYENTRTNDNDHICVLSVG
SDYHWYVRTSCGSFSYGHVN
SEICF
SEKYATSKYCQVTFGVTLPS
SERPDFMDYEEMLGYAVKWR
SFDFHRVMIPRDRPDYHPSM
SFFARGVFFAIRQARQGNSG
SFFLIRG
SFGLF
SFISVCNAVLHIR
SFITTCIYRNVSVFCDHSAE
SFLFA
SFLPNKYLL
SFMRCFNIVWYTSILLRYTW
SFNFSPCVYTCVRMCIWGYF
SFNGMSCLRNNLRWNFNRNA
SFSCVHDDCRKLLQLRLDST
SFSSRRHYNLLPFRWFFRRN

Amyloid nucleation score, 0.915 ± 0.14:
RPVKCSLYMTGQLQRLDGVN

Amyloid nucleation score, 0.743 ± 0.18:
RVRYGGNKMHNSRKLACGQG

Amyloid nucleation score, -0.029 ± 0.81:
RVLRLLRVDAGHNLI

Amyloid nucleation score, -0.401 ± 1.8:
RRGRPVLCRLHPGRWLRSRR

Amyloid nucleation score, 2.13 ± 0.077:
RSEPIKVVWVSISQPMDFFC

Amyloid nucleation score, 0.881 ± 0.14:
RYGFCHYCYRVLDFDVDVRW

Amyloid nucleation score, 0.345 ± 0.69:
RWSVLILNPPISKKHPDDK

Amyloid nucleation score, 1.04 ± 0.1:
RQIVKPASQVILCRCLCTGA

Amyloid nucleation score, -0.538 ± 1.4:
RPLTVKKY

Amyloid nucleation score, -0.112 ± 0.75:
RSYARRSTGILAR

Amyloid nucleation score, 2.05 ± 0.068:
RVCDMVNTASWAIICSCLHL

Amyloid nucleation score, 0.396 ± 0.22:
RQVSPTVVCSIILSLPFDPC

Amyloid nucleation score, 1.04 ± 0.21:
RRLTGFMQVVRKNWVLGELA

Amyloid nucleation score, 1.22 ± 0.16:
SERQTSLRHLGLRHLFK

Amyloid nucleation score, 2.02 ± 0.065:
RYFAMGFRNSCYL

Amyloid nucleation score, 0.468 ± 0.19:
RRGYLVYFGSTFYYSSNSFW

Amyloid nucleation score, 0.003 ± 0.98:
RVSFTSITWVSSLM

Amyloid nucleation score, -0.759 ± 1:
RRSISGKVLFTRIQSYLLKF

Amyloid nucleation score, 1.37 ± 0.084:
RPRFWICMSYMEQSSDNRRT

Amyloid nucleation score, 0.211 ± 0.24:
RQQRLRRKPLFWDNQAKANY

Amyloid nucleation score, 0.886 ± 0.11:
SFNSQSSRRVDNQRWVNLNF

Amyloid nucleation score, 0.569 ± 0.22:
SEQVMRTRDSTRAKSGLNVI

Amyloid nucleation score, 1.24 ± 0.16:
RSWLLSSEFVVVIFSNTEGM

Amyloid nucleation score, 0.611 ± 0.16:
SFMVIIYAVERVIVGITGKS

Amyloid nucleation score, 1.51 ± 0.13:
SFNHFQCLFISPLTRCARGV

Amyloid nucleation score, 0.755 ± 0.23:
RSVVMYALSIFYVRFTANQN

Amyloid nucleation score, 2.4 ± 0.05:
SCFCNVFVVDMMSLSMGDIL

Amyloid nucleation score, 1.99 ± 0.063:
SCLSNIVFFFPCQCRSMIFS

Amyloid nucleation score, 0.747 ± 0.18:
SAWHIRVERIGVMYRVHCYD
